According to PMC5399792:

Test system: Nc1nc2c(ncn2[C@@H]2O[C@H](COP(=O)(O)O[C@H]3[C@@H](O)[C@H](n4cnc5c(N)ncnc54)O[C@@H]3CO)[C@@H](O)[C@H]2O)c(=O)[nH]1
Experiment: purified protein, by the assay type
Conditions: pH 7.4; 24.0 °C

influenza B polymerase initiating RNA synthesis at the vRNA promoter (vPol) (Influenza B virus (B/Memphis/13/2003))
Km: 58 ± 18 µM
